# Assay results from patent US20030021776, “Regulation of angiogenesis with zinc finger proteins” (Sangamo BioSciences, Inc., published 2003).
# Residue numbers refer to the chain shown, from its start.
# T1: VOP 32B-7 (VZ+434b, mVZ+426) (synthetic)
# T1 chain: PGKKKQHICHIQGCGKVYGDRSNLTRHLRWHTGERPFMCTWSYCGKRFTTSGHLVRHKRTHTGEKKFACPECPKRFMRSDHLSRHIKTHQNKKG
# T2: VEGF 1 (VZ-8) (synthetic, UniProt P08047)
# T2 chain: T1 chain with D20T, R21T, T25R, T50R, G52S, H53N, V55Q
# T3: BVO 13A (synthetic)
# T3 chain: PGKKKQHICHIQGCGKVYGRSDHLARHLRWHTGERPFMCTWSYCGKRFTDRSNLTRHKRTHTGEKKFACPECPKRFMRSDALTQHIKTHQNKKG
# T4: MX1E (synthetic)
# T4 chain: T3 chain with T83S, Q84A
# T5: PDF 5A (VZ+590) (synthetic)
# T5 chain: T1 chain with N23S, T50R, G52D, V55S, R78Q, D80G, H81S, S83T
# T6: HUM 19A (synthetic)
# T6 chain: T1 chain with T50Q, H53D, V55T, S83T, R84T
# T7: VOP 32B-VP16 (VZ+434b-VP16) (synthetic)
# T7 chain: T1 chain
# T8: VOP 32A-6 (VZ+434a) (synthetic)
# T8 chain: T1 chain with T50M, G52H, V55S
# T9: HUM 17A (VZ+472) (synthetic)
# T9 chain: T3 chain with H23N, D50R, R51S, S52D, N53H, T55S, A81N
# T10: VZ-950 (synthetic)
# T10 chain: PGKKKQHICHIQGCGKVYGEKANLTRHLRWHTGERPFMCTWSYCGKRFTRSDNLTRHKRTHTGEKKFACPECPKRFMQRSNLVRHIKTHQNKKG
# T11: VOP 29A-3 (synthetic)
# T11 chain: T3 chain with A25T, R26T, D50Q, R51S, N53D, A81N, Q84R
# B1: VZ-573 target (dsDNA)
# DNA 1: GGGGGCGCTC
# DNA 2: GAGCGCCCCC
# B2: VZ+434 / mVZ+426 target (dsDNA)
# DNA 1: GGGGGTGACC
# DNA 2: GGTCACCCCC
# B3: VZ-475 target (dsDNA)
# DNA 1: GTGTGGGGTT
# DNA 2: AACCCCACAC
# B4: VZ-8 target (dsDNA)
# DNA 1: GGGGAGGATC
# DNA 2: GATCCTCCCC
# B5: mVZ+509 target (dsDNA)
# DNA 1: GCTGGGGGCG
# DNA 2: CGCCCCCAGC
# B6: BVO 13A / MX1E target (dsDNA)
# DNA 1: ATGGACGGG
# DNA 2: CCCGTCCAT
# B7: VZ+892 target (dsDNA)
# DNA 1: GCTGGAGCAC
# DNA 2: GTGCTCCAGC
# B8: MTS 5A target (dsDNA)
# DNA 1: TGGGGGTGG
# DNA 2: CCACCCCCA
# B9: VOP 35A-10 target (dsDNA)
# DNA 1: GCTGGAGCA
# DNA 2: TGCTCCAGC
# B10: VOP 30A target (dsDNA)
# DNA 1: GCTGGGGGC
# DNA 2: GCCCCCAGC
# B11: VEGF 1B target (dsDNA)
# DNA 1: GGGGAGGAT
# DNA 2: ATCCTCCCC
# B12: VZ+590 target (dsDNA)
# DNA 1: GCAGGGGCCG
# DNA 2: CGGCCCCTGC
# B13: HUM 19A target (dsDNA)
# DNA 1: TGGGCAGAC
# DNA 2: GTCTGCCCA
# B14: VOP 32A/32B target (dsDNA)
# DNA 1: GGGGGTGAC
# DNA 2: GTCACCCCC
# B15: VZ+472 target (dsDNA)
# DNA 1: AAGGGGGAGG
# DNA 2: CCTCCCCCTT
# B16: VZ-950 target (dsDNA)
# DNA 1: GAAGAGGACC
# DNA 2: GGTCCTCTTC
# B17: VOP 28A-2 target (dsDNA)
# DNA 1: GGGGGCGCT
# DNA 2: AGCGCCCCC
# B18: USX 3A target (dsDNA)
# DNA 1: GCCGGGGAG
# DNA 2: CTCCCCGGC
# B19: SP1 target (dsDNA)
# DNA 1: GGGGCGGGGG
# DNA 2: CCCCCGCCCC
# B20: VOP 29A-3 target (dsDNA)
# DNA 1: GAGGCTTGG
# DNA 2: CCAAGCCTC
# Experiments:
# ZEN-7A 1 (VZ-573) = ZEN-7A 1 (VZ-573) (synthetic, UniProt P08047); test: EMSA; 170 mM KCl, 1.7 mM MgCl2, Zn; settings: tags: MBP fusion (pMal-c2), SP1 backbone
# Procedure: (§1) Binding studies were performed essentially as described (Zhang et al., supra; WO 00/41566; and WO 00/42219) except that the binding reactions contained 10 pM of labeled target site and the buffer composition was as follows: 17 mM Tris, 170 mM KCl, 1.7 mM MgCl2, 3.5 mM DTT, 0.01-0.033 mM ZnCl2, 15% glycerol, 300 μg/ml bovine serum albumin, 0.03% IGEPAL. In addition, ZFP concentrations for these studies were determined directly by measuring the DNA-binding activity of each ZFP preparation using conditions under which binding is essentially stoichiometric (ZFP and target site concentrations of >100 nM).
# [1] = target: T1, VOP 32B-7 (VZ+434b, mVZ+426); test: EMSA; upper bound; 10 mM Tris, 100 mM KCl, 1 mM MgCl2, 0.01 mM ZnCl2; settings: tags: MBP fusion (pMal-c2), SP1 backbone
# Procedure: (§2) A three-fold dilution series of each protein was tested for binding to its DNA target (SEQ ID NOS:207, 144, 240, and 141, respectively), with the highest concentration in lane 10 and the lowest concentration in lane 2. Lane 1 contains probe alone.
# (§3) Binding studies. Binding studies were performed essentially as described (Liu, et al. (2001) J. Biol. Chem. 276: 11,323-11,334), except that the buffer was modified to the following final composition: 10 mM Tris, 100 mM KCl, 1 mM MgCl₂, 10 mM DTT, 0.01 mM ZnCl₂, 10% glycerol, 200 μg/ml bovine serum albumin, 0.02% IGEPAL.
# (§4) Genes for our ZFPs were assembled (see experimental procedures) and each protein was expressed and purified essentially as described (Liu et. al., 2001, supra; and Zhang et. al., supra). We then characterized the DNA-binding affinity of each ZFP using a gel shift assay. Procedures for these studies were essentially identical to those described previously (Liu et. al., 2001, supra; and Zhang et. al., supra) except for the use of a modified binding buffer.
# [2] = target: T1, VOP 32B-7 (VZ+434b, mVZ+426); test: EMSA; 170 mM KCl, 1.7 mM MgCl2, Zn; settings: tags: MBP fusion (pMal-c2), SP1 backbone
# Procedure: as §1
# VG 8A (VZ-475) = VG 8A (VZ-475) (synthetic); test: EMSA; 170 mM KCl, 1.7 mM MgCl2, Zn; settings: tags: MBP fusion (pMal-c2), SP1 backbone
# Procedure: as §1
# VEGF 1 (VZ-8) = target: T2, VEGF 1 (VZ-8); test: EMSA; 170 mM KCl, 1.7 mM MgCl2, Zn; settings: tags: MBP fusion (pMal-c2), SP1 backbone
# Procedure: as §1
# [3] = target: VOP 30A-4 (VZ+42/+530, mVZ+509) (synthetic); test: EMSA; upper bound; 10 mM Tris, 100 mM KCl, 1 mM MgCl2, 0.01 mM ZnCl2; settings: tags: MBP fusion (pMal-c2), SP1 backbone
# Procedure: as §2, §3, §4
# BVO 13A = target: T3, BVO 13A; test: EMSA; settings: tags: MBP fusion (pMal-c2), SP1 backbone
# MX1E = target: T4, MX1E; test: EMSA; settings: tags: MBP fusion (pMal-c2), SP1 backbone
# VOP 35A-10 (VZ+892) [4] = target: VOP 35A-10 (VZ+892) (synthetic); test: EMSA; 170 mM KCl, 1.7 mM MgCl2, Zn; settings: tags: MBP fusion (pMal-c2), SP1 backbone
# Procedure: as §1
# MTS 5A = MTS 5A (synthetic, UniProt P08047); test: EMSA; settings: tags: MBP fusion (pMal-c2), SP1 backbone
# VOP 35A-10 (VZ+892) [5] = target: VOP 35A-10 (VZ+892) (synthetic); test: EMSA; Table 6 gives 0.24 nM for same helices (VZ+892); settings: tags: MBP fusion (pMal-c2), SP1 backbone
# [6] = target: VOP 30A-4 (VZ+42/+530, mVZ+509) (synthetic); test: EMSA; settings: tags: MBP fusion (pMal-c2), SP1 backbone
# VEGF 1B = VEGF 1B (synthetic, UniProt P08047); test: EMSA; settings: tags: MBP fusion (pMal-c2), SP1 backbone
# PDF 5A (VZ+590) = target: T5, PDF 5A (VZ+590); test: EMSA; 170 mM KCl, 1.7 mM MgCl2, Zn; settings: tags: MBP fusion (pMal-c2), SP1 backbone
# Procedure: as §1
# HUM 19A = target: T6, HUM 19A; test: EMSA; settings: tags: MBP fusion (pMal-c2), SP1 backbone
# [7] = target: T7, VOP 32B-VP16 (VZ+434b-VP16); test: cell_activity; endogenous VEGF-A in HEK 293
# VOP 32A-6 (VZ+434a) = target: T8, VOP 32A-6 (VZ+434a); test: EMSA; settings: tags: MBP fusion (pMal-c2), SP1 backbone
# [8] = target: T1, VOP 32B-7 (VZ+434b, mVZ+426); test: EMSA; settings: tags: MBP fusion (pMal-c2), SP1 backbone
# HUM 17A (VZ+472) = target: T9, HUM 17A (VZ+472); test: EMSA; 17 mM Tris, 170 mM KCl, 1.7 mM MgCl2, Zn; settings: tags: MBP fusion (pMal-c2), SP1 backbone
# Procedure: as §1
# VZ-950 = target: T10, VZ-950; test: EMSA; 170 mM KCl, 1.7 mM MgCl2, Zn; settings: tags: MBP fusion (pMal-c2), SP1 backbone
# Procedure: as §1
# VOP 28A-2 = VOP 28A-2 (synthetic); test: EMSA; settings: tags: MBP fusion (pMal-c2), SP1 backbone
# USX 3A = USX 3A (synthetic); test: EMSA; settings: tags: MBP fusion (pMal-c2), SP1 backbone
# SP1 zinc finger domain [9] = target: T12, SP1 zinc finger domain (UniProt P08047 SEQ:1-94); test: EMSA; 170 mM KCl, 1.7 mM MgCl2, Zn
# Procedure: as §1
# SP1 zinc finger domain [10] = target: T12, SP1 zinc finger domain; test: EMSA; 100 mM KCl, 1 mM MgCl2, Zn
# Procedure: as §3, §4
# VOP 29A-3 = target: T11, VOP 29A-3; test: EMSA; settings: tags: MBP fusion (pMal-c2), SP1 backbone
# Chain of VOP 35A-10 (VZ+892) (synthetic) (chain, as listed by the source): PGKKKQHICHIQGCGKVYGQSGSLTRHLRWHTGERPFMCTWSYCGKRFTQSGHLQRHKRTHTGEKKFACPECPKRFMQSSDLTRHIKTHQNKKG
# T12 sequence (P08047 620-713): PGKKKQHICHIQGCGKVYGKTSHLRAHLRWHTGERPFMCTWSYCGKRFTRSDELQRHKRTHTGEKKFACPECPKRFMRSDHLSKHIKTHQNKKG
# Chain of VOP 30A-4 (VZ+42/+530, mVZ+509) (synthetic) (chain, as listed by the source): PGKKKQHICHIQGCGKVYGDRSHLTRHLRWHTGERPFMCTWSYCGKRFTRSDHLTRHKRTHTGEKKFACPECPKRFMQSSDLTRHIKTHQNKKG
# Chain of VOP 28A-2 (synthetic) (chain, as listed by the source): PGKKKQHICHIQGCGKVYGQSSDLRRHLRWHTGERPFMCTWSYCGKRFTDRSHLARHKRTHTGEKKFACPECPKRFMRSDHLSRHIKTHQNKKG
# Chain of VG 8A (VZ-475) (synthetic) (chain, as listed by the source): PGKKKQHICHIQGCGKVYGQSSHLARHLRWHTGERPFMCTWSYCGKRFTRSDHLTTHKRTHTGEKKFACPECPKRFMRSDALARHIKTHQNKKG
# Chain of ZEN-7A 1 (VZ-573) (P08047 other isoform, or with tags, fused parts or gaps): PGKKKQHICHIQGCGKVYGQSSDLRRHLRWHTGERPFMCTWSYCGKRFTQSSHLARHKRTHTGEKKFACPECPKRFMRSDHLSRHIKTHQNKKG
# Chain of VEGF 1B (P08047 other isoform, or with tags, fused parts or gaps): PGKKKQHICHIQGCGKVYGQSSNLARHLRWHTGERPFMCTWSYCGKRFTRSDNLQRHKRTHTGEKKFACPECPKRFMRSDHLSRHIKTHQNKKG
# Chain of MTS 5A (P08047 other isoform, or with tags, fused parts or gaps): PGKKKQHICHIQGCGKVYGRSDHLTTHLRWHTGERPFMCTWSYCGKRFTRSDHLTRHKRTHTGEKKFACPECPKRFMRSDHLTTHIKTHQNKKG
binder,measurement,setting,value
B1,Kd,ZEN-7A 1 (VZ-573),0.63 nM
B2,Kd,[1],< 0.01 nM
same,Kd,[2],< 0.02 nM
B3,Kd,VG 8A (VZ-475),0.35 nM
B4,Kd,VEGF 1 (VZ-8),2.83 nM
B5,Kd,[3],< 0.01 nM
B6,Kd,BVO 13A,< 0.02 nM
same,Kd,MX1E,3.4 nM
B7,Kd,VOP 35A-10 (VZ+892) [4],0.24 nM
B8,Kd,MTS 5A,0.07 nM
B9,Kd,VOP 35A-10 (VZ+892) [5],< 0.02 nM
B10,Kd,[6],< 0.02 nM
B11,Kd,VEGF 1B,2 nM
B12,Kd,PDF 5A (VZ+590),0.23 nM
B13,Kd,HUM 19A,0.02 nM
B14,activity,[7],8 fold
same,Kd,VOP 32A-6 (VZ+434a),< 0.02 nM
same,Kd,[8],< 0.02 nM
B15,Kd,HUM 17A (VZ+472),0.006 nM
B16,Kd,VZ-950,0.18 nM
B17,Kd,VOP 28A-2,< 0.02 nM
B18,Kd,USX 3A,0.06 nM
B19,Kd,SP1 zinc finger domain [9],0.25 nM
same,Kd,SP1 zinc finger domain [10],0.053 nM
B20,Kd,VOP 29A-3,< 0.02 nM
